Test results reported in the supplement of paper PMC10567573.
± gives the standard deviation.

Experiment: protein stability index of a GFP-peptide fusion (GPS, HEK-293T) (PSI 1-6); higher = more stable
[1] = treatment: DMSO, c terminus: a fixed tail appended
[2] = treatment: MLN4924 1 uM, 8 h, c terminus: a fixed tail appended
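Further: 24-mer peptide tiles fused after GFP, lentivirally expressed, FACS-sorted into six equal bins by GFP/DsRed ratio, decoded by Illumina sequencing, PSI is the read-weighted mean bin number.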

Row | Sequence | protein stability index [1] | protein stability index [2] | protein stability index (treatment: DMSO, c terminus: native) | protein stability index (treatment: MLN4924 1 uM, 8 h, c terminus: native)
1 | AAEGEGSPPAVAAVAGPPAAAEVG [ANKRD17] | 5.63 ± 0.23 | 5.21 ± 0.43 | – | –
2 | AAKFPSGSQRARVVNTDHGSPEQL [SDE2] | 4.56 ± 0.44 | 4.81 ± 0.17 | – | –
3 | AALNNHPDIMNLLIKSGAHFDATN [FEM1C] | 2.41 ± 0.24 | 2.54 ± 0.3 | – | –
4 | AAPAAGLCGAGSEPSIAPTSCAGN [RSPH3] | 4.55 ± 0.25 | 4.68 ± 0.26 | – | –
5 | AARLLFNMAGVTFRKFIPKCSKIV [DCTD] | 1.97 ± 0.15 | 2 ± 0.18 | – | –
6 | AAVEGSGGSGGGSHHHHQSRGACT [KCNA4] | 4.97 ± 0.16 | 4.7 ± 0.71 | – | –
7 | AAWCLHHICTNYNSVCSKFRKEIK [RHOBTB1] | 2.23 ± 0.037 | 2.19 ± 0.28 | – | –
8 | ADGSPPLLPPGEPPLLGTFPRDHT [ANKRD40] | 4.8 ± 0.28 | 4.49 ± 0.21 | – | –
9 | ADIDHDQALAQAIKEAKEQHPDMS [EPB41L3] | 5.56 ± 0.17 | 5.51 ± 0.31 | – | –
10 | ADIPSVAFSSRLGGSRGAPGLLMA [DCAF4] | 2.83 ± 0.2 | 2.78 ± 0.51 | – | –
11 | AEAQKNMYFKTRLKCPRSLSGGR [ZNF396] | – | – | 2.72 ± 0.45 | 2.99 ± 0.44
12 | AEDLGNLWENTRFTDCSFFVRGQE [SPOPL] | 3.69 ± 0.32 | 3.74 ± 0.24 | – | –
13 | AERLGVTFFEVSPLCNFNITESFT [RAB40B] | 2.13 ± 0.15 | 2.22 ± 0.16 | – | –
14 | AFAFQNTFPHSISAKNTSHPGSGT [SASS6] | 3.36 ± 0.39 | 3.45 ± 0.45 | – | –
15 | AFNQNSSLGRHKRTHTGEKPYTCS [ZNF8] | 3.42 ± 0.33 | 3.79 ± 0.49 | – | –
16 | AFPKMALQAKQDGKKDVSHSSPVD [LCOR] | 5.26 ± 0.14 | 5.16 ± 0.16 | – | –
17 | AFPYQYPPPPHPYNPHPGFPELGY [DVL3] | 2.35 ± 0.31 | 2.5 ± 0.35 | – | –
18 | AFTMAENLANCERLIEVEDMMVMG [SMTNL2] | 2.58 ± 0.35 | 3.24 ± 0.34 | – | –
19 | AGVGLSGGAAGAGWCIFVYNLSPE [ELAVL3] | 3.13 ± 0.71 | 2.71 ± 0.26 | – | –
20 | AHRTEFYRNLTHNPPSDFSFQNMN [STK38L] | 2.84 ± 0.34 | 2.88 ± 0.24 | – | –
21 | AIAPFQSAGSPPELQGLPELHEEC [NET1] | 4.99 ± 0.33 | 4.85 ± 0.14 | – | –
22 | AKDLPCDSKPESALGAPSKSPSSP [TBX5] | 5.49 ± 0.26 | 5.54 ± 0.2 | – | –
23 | AKPEVLSIQWPGKRSSRRVQRHNS [NECAB1] | 4.23 ± 0.2 | 4.37 ± 0.21 | – | –

Row | Sequence | protein stability index [1] | protein stability index [2] | protein stability index (treatment: DMSO, c terminus: native) | protein stability index (treatment: MLN4924 1 uM, 8 h, c terminus: native)
24 | AKPRLAERMTTREKKVLEAGMGKV [HDAC6] | 4.38 ± 0.17 | 3.98 ± 0.2 | – | –
25 | ALAVCLSFFYPVLFVLFMFFGMAF [SOAT1] | 2.84 ± 0.46 | 2.94 ± 0.75 | – | –
26 | ALDEAAAALTRMRAESTANAGQSD [ANKRD17] | 5.49 ± 0.17 | 5.36 ± 0.25 | – | –
27 | ALNEQACRNGSSIQIAFEEVPQLP [C2CD2L] | 3.83 ± 0.38 | 4.02 ± 0.12 | – | –
28 | ALRKIIKTLAVKNEEIQSFIYSLK [FSD1] | 2.87 ± 0.45 | 2.89 ± 0.42 | – | –
29 | AMAYHHDSRRIFVGQDNGAVMEFH [WDFY1] | 3.08 ± 0.15 | 2.96 ± 0.32 | – | –
30 | ANCIVHRDLKPENILVTSGGTVKL [CDK4] | 3.23 ± 0.15 | 3.5 ± 0.32 | – | –
31 | APDSGRSAPYSAAFLELPHGSGGS [TBX6] | 4.3 ± 0.17 | 4.46 ± 0.066 | – | –
32 | APLSGPQALMLPPGSFWGLCQVAQ [VENTX] | 2.06 ± 0.28 | 2.27 ± 0.14 | – | –
33 | APPGSLVTKVTAVDADAGHNAWLS [PCDHGC5] | 3.848 ± 0.025 | 4 ± 0.19 | – | –
34 | AQLFMDHLFAGAEVILLVVMAYDR [OR4A15] | 2.2 ± 0.74 | 2.75 ± 1 | – | –
35 | AQQLLCDEQAPQRQRLLADLLHNV [DFFB] | 3.98 ± 0.16 | 3.92 ± 0.24 | – | –
36 | AREGGGCGRSEVRPVAPRRPRDAV [SMAD6] | 4.43 ± 0.26 | 4.36 ± 0.21 | – | –
37 | ARHNYNDLCPPIGRRAATALLWLS [GNAS] | 2.15 ± 0.43 | 2.27 ± 0.35 | – | –
38 | ARLLCRLQAFGETLLLELEQDSGV [ADAMTS4] | 2.66 ± 1.3 | 2.73 ± 0.29 | – | –
39 | ARLRPGLAVLGADERIFSLTRRLA [HAGHL] | 2.47 ± 0.14 | 2.78 ± 0.27 | – | –
40 | ARRLTRFTGVITQGRNSLWLSDWV [CPXM2] | 2.43 ± 0.24 | 2.38 ± 0.26 | – | –
41 | ARRTTRSEPIRRAGKSGTSTPTTP [MAP2] | 4.66 ± 0.12 | 4.8 ± 0.12 | – | –
42 | ASEFLEQSMSQTRELLLDGGYLQR [RSPH3] | 3.58 ± 0.43 | 3.55 ± 0.51 | – | –
43 | ASLGEKRDHHSTHYRASEEEPEYG [CHGB] | 5.37 ± 0.24 | 5.34 ± 0.11 | – | –
44 | ASTTRLYLRKGRGETRICKIYDSP [RAD51] | 2.94 ± 0.4 | 3.19 ± 0.31 | – | –
45 | ATAASSSASSPASVGDPCGGAICG [SLC25A25] | 4.9 ± 0.34 | 4.85 ± 0.11 | – | –
46 | ATFNCLNKRLAKYRMRNVHPKPKL [CLCN6] | 2.56 ± 0.15 | 2.8 ± 0.27 | – | –

Row | Sequence | protein stability index [1] | protein stability index [2] | protein stability index (treatment: DMSO, c terminus: native) | protein stability index (treatment: MLN4924 1 uM, 8 h, c terminus: native)
47 | ATTNACEKPIGSCVTNPCGPRSRC [KRT33B] | 3.92 ± 0.17 | 4.14 ± 0.23 | – | –
48 | AVEWARNIPFFPDLQITDQVALLR [NR2F2] | 2.64 ± 0.2 | 2.79 ± 0.22 | – | –
49 | AVGQDCYTRIWSLHDARLLRTIPS [DCAF4] | 2.48 ± 0.36 | 2.39 ± 0.26 | – | –
50 | AVGYSSDSETLDLEEAEGAVGYQP [NFE2L1] | 5.24 ± 0.1 | 5.33 ± 0.21 | – | –
51 | AVIKSNHSYCRMFLQRGADTNLGR [ASB7] | 2.26 ± 0.16 | 2.41 ± 0.14 | – | –
52 | AVMFFIVFFAYAQLGYLLFGTQVE [PKD2L1] | 2.7 ± 0.48 | 2.73 ± 0.44 | – | –
53 | AVPAAATRTTSFKGTSPSSKYVKL [KCTD10] | 3.87 ± 0.2 | 3.99 ± 0.28 | – | –
54 | AVQGLNLRSPNNFLSYYRLTRFLS [CCND1] | 2.3 ± 0.18 | 2.36 ± 0.27 | – | –
55 | AVTSLSSQIQYMNTVVSTYVTTNV [TMEM106C] | 2.58 ± 0.67 | 2.51 ± 0.39 | – | –
56 | AWFLPMPQKSLFFHHIPSTCQRVN [SLC19A2] | 2.29 ± 0.48 | 2.23 ± 0.075 | – | –
57 | AWLTEEEPEPAEVTSTSQSPHSPD [DDIT3] | 5.59 ± 0.23 | 5.63 ± 0.21 | – | –
58 | AYALPAGLSAPARCLVRCLLRREP [TRIB3] | 2.23 ± 0.49 | 1.87 ± 0.31 | – | –
59 | AYHVPNRTLASGRLLSYRGERVAA [DNAAF3] | 3.31 ± 0.23 | 3.4 ± 0.14 | – | –
60 | CASFIRTRLLLQFTQPQQTSFALE [C8orf76] | 2.46 ± 0.28 | 2.7 ± 0.58 | – | –
61 | CGDELPWTLQRRLTRLRTASGHEP [PLEKHN1] | 2.68 ± 0.12 | 2.7 ± 0.34 | – | –
62 | CGSRRERCGYRLVRRQRSADEQLH [ESR2] | 2.79 ± 0.36 | 2.93 ± 0.29 | – | –
63 | CICWSPFLVTMANIGINGNHSLET [PTGFR] | 2.82 ± 0.26 | 2.84 ± 0.73 | – | –
64 | CKDFLCQFCAQRFGRKDHLTRHTK [PLAGL1] | 2.63 ± 0.25 | 3.09 ± 0.64 | – | –
65 | CLAGCEGAHEQVDFKDFYPAIADL [P3H4] | 3.59 ± 0.48 | 3.68 ± 0.26 | – | –
66 | CLIRSLLRREPSERLTAPEILLHP [TRIB1] | 2.48 ± 0.21 | 2.2 ± 0.21 | – | –
67 | CLLICAEMYQVSRLQHICELFIIT [RHOBTB3] | 3.06 ± 0.38 | 3 ± 0.27 | – | –
68 | CLVKGIFYHCSNDDEGDSYSDNPC [SPRY1] | 2.61 ± 0.23 | 2.89 ± 0.15 | – | –
69 | CNVKYKRWALLSCRGKKPSRIYGQ [KLHDC10] | 2.21 ± 0.42 | 2.22 ± 0.37 | – | –

Row | Sequence | protein stability index [1] | protein stability index [2] | protein stability index (treatment: DMSO, c terminus: native) | protein stability index (treatment: MLN4924 1 uM, 8 h, c terminus: native)
70 | CRFLLNSRVTDAAFNFLLVWYYCT [TMEM120A] | 2.85 ± 0.74 | 2.38 ± 0.48 | – | –
71 | CRLKKCFRAGMKKEAVQNERDRIS [HNF4A] | 3.22 ± 0.27 | 3.44 ± 0.25 | – | –
72 | CSIALLRALATSNARAQQRAAAQQ [GNAS] | 2.23 ± 0.23 | 2.27 ± 0.12 | – | –
73 | CSYTDLLPQDEGGGGYSSVRYSDC [KCNA4] | 2.67 ± 0.27 | 2.68 ± 0.24 | – | –
74 | CTNSPAIVRFSGQSRGVPAVSESY [FBXO34] | 3.21 ± 0.46 | 3.14 ± 0.45 | – | –
75 | CVNMDRSFACQCPEGHVLRSDGKT [MATN2] | 3.92 ± 0.21 | 4.22 ± 0.73 | – | –
76 | CVQCKMPVCYQCLEEGKHSSHEVK [TRIM9] | 4.08 ± 0.44 | 4.19 ± 0.45 | – | –
77 | CWYCNRDFDDEKILIQHQKAKHFK [ZNF207] | 4.59 ± 0.39 | 4.45 ± 0.22 | – | –
78 | CYDVYSPDKEEQLPFGPFNGTAWT [PKD2L1] | 2.75 ± 0.14 | 2.59 ± 0.12 | – | –
79 | DAELATRAIPELTKLLNDEDQVVV [CTNNB1] | 4.79 ± 0.22 | 4.8 ± 0.11 | – | –
80 | DALTKLEQGEPLWTLEDEIHSPAH [ZNF649] | 3.49 ± 0.35 | 3.65 ± 0.24 | – | –
81 | DASEAHESSSRGEAGAPGEEDIQG [CHGB] | 5.69 ± 0.3 | 5.56 ± 0.28 | – | –
82 | DASSSTSTSSSFPSSFPSSSSSSS [MAGEA10] | 5.07 ± 0.37 | 5.23 ± 0.085 | – | –
83 | DDDDHDDHEDNDKMNDSEGMDPER [NOL4L] | 5.54 ± 0.29 | 5.54 ± 0.23 | – | –
84 | DDEFFHFVLLCFAIGALLVCYHYY [TMEM40] | 2.27 ± 0.39 | 2.37 ± 0.88 | – | –
85 | DDEGDSYSDNPCSCSQSHCCSRYL [SPRY1] | 4.45 ± 0.21 | 4.57 ± 0.23 | – | –
86 | DDPSLLKEAKTKYPNYEFISDNSI [FUT8] | 3.58 ± 0.36 | 4.04 ± 0.53 | – | –
87 | DDSCLNNDIPHSIPLEQGSSCNGP [FAN1] | 5.17 ± 0.19 | 5.09 ± 0.1 | – | –
88 | DEEVSSLTCDALTELLAKITNTDV [CCND2] | 4.04 ± 0.44 | 4.28 ± 0.078 | – | –
89 | DEMCANNDFVQVDPGQVGLINSNV [FAN1] | 4.82 ± 0.2 | 4.78 ± 0.35 | – | –
